The record followed here is the DeepSol protein solubility set.

A short description of the data set: soluble on expression in E. coli; label from the status in PepcDB or PDB records.
“MGSDKIHHHHHHQQKSADVVENQFTTIKEVPITPVKDQANSGTCWSYSALGFLESEILRMGKPEVDLAEMHSVAQSYKDKGEKYVRMHGKLNFGQGGSFYDVLYVVKHYGVVPQSVMQGLNYGTKKNAHSELADGALAYLKAIVTNPNGKLTPAWKKAYDGIIDSYLGTCPETFTYEGKTYTPKSFAQYLGLNVDDYVSLTSYTHHPFYTQFALEIEDNWRGSLSYNMPINELMETMEYAINNGYSIAWGSDVSEVGFTRDGIGVLADVEGIEAKGSDQDRWVGLSRAEKQAEIIRTVNSADCPEINPTQEFRQKGYDEYSLTDDHGMVIYGIAKNQNGRKFFMVKNSWGETGKYKGIWYASYNFVAGRTMNIIVHKKAIPAAIAKKLGIRQ”: the “soluble on expression in E. coli” value is on record as “not soluble”.

As for “MKKWFPALLFSLCVSGESSAWNNIVFYSLGDVNSYQGGNVVITQRPQFITSWRPGIATVTWNQCNGPEFADGFWAYYREYIAWVVFPKKVMTQNGYPLFIEVHNKGSWSEENTGDNDSYFFLKGYKWDERAFDAGNLCQKPGEITRLTEKFDDIIFKVALPADLPLGDYSVKIPYTSGMQRHFASYLGARFKIPYNVAKTLPRENEMLFLFKNIGGCRPSAQSLEIKHGDLSINSANNHYAAQTLSVSCDVPANIRFMLLRNTTPTYSHGKKFSVGLGHGWDSIVSVNGVDTGETTMRWYKAGTQNLTIGSRLYGESSKIQPGVLSGSATLLMILP”, the “soluble on expression in E. coli” value is “soluble”.

In the case of “MHSLDSYFQRTTAPKSAAQERREEFHEKVMRSADYIADKFVETVRPLVDEVADKLQSEMPEDMEGTAKRRLICELSRRFGVSISAFK”, the “soluble on expression in E. coli” value was “not soluble”.

Consider “GSHMTRETERFPAREFQRDLLDWFARERRDLPWRKDRDPYKVWVSEVMLQQTRVETVIPYFEQFIDRFPTLEALADADEDEVLKAWEGLGYYSRVRNLHAAVKEVKTRYGGKVPDDPDEFSRLKGVGPYTVGAVLSLAYGVPEPAVDGNVMRVLSRLFLVTDDIAKPSTRKRFEQIVREIMAYENPGAFNEALIELGALVCTPRRPSCLLCPVQAYCQAFAEGVAEELPVKMKKTAVKQVPLAVAVLADDEGRVLIRKRDSTGLLANLWEFPSCETDGADGKEKLEQMVGEQYGLQVELTEPIVSFEHAFSHLVWQLTVFPGRLVHGGPVEEPYRLAPEDELKAYAFPVSHQRVWREYKEWASGVRPPP”, for which the “soluble on expression in E. coli” value is “soluble”.

“LPLRESHTAHQATDFGVKVFQQVVQASKDRNVVFSPYGVSSVLAMLQMTTAGKTRRQIQDAMGFKVNEKGTAHALRQLSKELMGPWNKNEISTADAIFVQRDLELVQGFMPHFFKLFQTMVKQVDFSEVERARFIINDWVERHTKGMINDLLAKGAVDELTRLVLVNALYFSGQWKTPFLEASTHQRLFHKSDGSTVSVPMMAQSNKFNYTEFTTPDGLEYDVVELPYQGDTLSMFIAAPFEKDVHLSALTNILDAELIRQWKGNMTRLPRLLILPKFSLETEVDLRGPLEKLGMPDMFSATLADFTSLSDQEQLSVAQALQKVRIEVNESGTVASSSTAFVISARMAPTEMVIDRSFLFVVRHNPTETILFMGQVMEP”: the “soluble on expression in E. coli” value was “soluble”.

As to “MTIIKYIKFVVIIVIVTIVFSCSKNEAGNSEYDPSLPISLTDFFPIQGGMATRMVIEGANFGTDLSQIKVFFNQKEASILNVKNSIIYLLVPKLPGNDCIVTVKVGNQEARFTRNFQYIENYSVTTIAGQPGTNLFVEGTLAAAQFGPVQHLAIDDENNLFITERNGSDGKGTCSVLNEESGTVTFLFKASDNLNVPTVNAQTQNVYIPLDGGYTFYELNPVNQWIAKSRLVLHPSKEQQEAGMDDFEINWKHSLAFSRYDNMIYTRSYGGDLIKVDPETRVGQKIGNFFPNTDSFIVAHPTQPEILYIAYAAKHVIYTYNIETGEHKLFAGAFGQSGWNDGIATDAEFNSPRQMSLDMEGNIYIADSGNHCIRMIDKNGIVTTPIGQPGEAGYADGSPDMALLNDPRGVAVNSEGDVYIADLGNRCIRKLTLQLEHHHHHH”, the “soluble on expression in E. coli” value was “not soluble”.

As to “MGSDKIHHHHHHMMCFSCRVTSDAKVVFLDVIPTPQDIISDFSYICLLLTIKFEYMENISRRTAIKTFLAGGVALATTGIEAAAAAKKKTDVKEPLKGNVRHSVSKWCFGDYKLDEFCEICKHIGIESVELLDPVDWPIVQKHGLTVAMAQGAGLGIDRGFNDPALHDELVASYEKVIPMVADAGLTNLICFSGRRNGVTDLQGWENCEKGLKRLIPLAEKHKVVLTMELLNSVGHKDYLCDHTVWGAELCRRIGSPNFKLLYDIYHMQIMEGNIIENIRKYHPYFSHVHTGGSPGRAEIDETQELYYPAIIKALMETGYKGFVGQEFVPAQEDKIASLEKCIRICDV”, the “soluble on expression in E. coli” value was “not soluble”.

As to “MSGALDGVRVLDLSRVLAGPYATMILGDLGADVIKVEAPGGSDDTRFWGPPFQNGMSAYYTAVNRNKRSITVNLKSAEGQETIRRLAETADVLIHNFKTGTMEQWELGYESLSRLNPRLIYCSITGFGETGPLAPLAGYDYIIQAMSGWMSINGTADTGPLKVGVAVTDVFTGLYAAIAIEAALLAREKTGRGQKIDLALFDCAVSALVNVAANYLLSGDVPKPLGNEHPNIVPYSTYMASDGPIVIAVGNDRQFQALCSLLSDHSLGTDPRFQTNPGRVAHREELNRRLNEEIKRRTRAEWQRLLAEKGIPCGPVQTLDELFRHPQTAAREMTVTVHHPIVGPLTLVASPLKLSDTAVSYRLPPPLAGEHNGEVEAGWQGKPAAENGPHDKNQ”, the “soluble on expression in E. coli” value was “not soluble”.

As for “MTKHARFSLLPSFIIFSAALLAGCNDQGDTQAHAGEPQVTVHVVETAPLAVTTELPGRTSAFRIAEVRPQVSGIVLKRNFTEGSDVEAGQSLYQIDPATYQADYDSAKGELAKSEAAAAIAHLTVKRYVPLVGTKYISQQEYDQAIADARQADAAVVAAKAAVESARINLAYTKVTSPISGRIGKSNVTEGALVTNGQSTELATVQQLDPIYVDVTQSSNDFMRLKQSVEQGNLHKDSASSTVQLVMENGQVYPIKGTLQFSDVTVDESTGSITLRAVFPNPQHSLLPGMFVRARIDEGVQPNAILVPQQGVTRTPRGDAMVMVVNDKSQVEARNVVAAQAIGDKWLISEGLKPGDKVIVSGLQKARPGVQVKATTDAPAAKTAQ”, the “soluble on expression in E. coli” value is “not soluble”.

Take “MGSDKIHHHHHHMCVKKGESSITSLVSAFGRAYHSEFDSPKIFDDYVAKEFISPKERSDIETNMVQGIHFFNTDIAEQFQDNPKEILKWITQVQLSPTPLARAAYCERVLLHEITLGAKQYVILGAGLDTFSFRHRELENKIEIFEVDHPSTQQFKKERIKEAELEVPNNLHFVSMDFTKGFSYEQLRNEGFEHKKTFFSLLGVSYYLTKEELASLIECLFEMVPEGSSIVFDYPDENLFTEKGLSNRVENMVKMAAVGGEPMKSCYSYAEMEALLEKAGLLIYEHLSPEDINAFYFEGRNDYLKAFETVHYVHAVKK”: the “soluble on expression in E. coli” value is reported as “not soluble”.

With “MSLKNNRHFLKFYCIRDLSWLSSVRASFIYSSFESIASSPFSSYIELRKKPVKFLLILFIALTLCDCGRSKETQFYLLTPISPQKNSRNSYNHLQIGVDEVSIPDYMKKPQLMIHQTPHHLTLEEFNQWAGALDKNITLVLTTNLSTLMPGVVVQTSPWNNKFHPDYHLQVMISQFEIDIHGNSTLRAEYFIYRKEELIYKGNAYYHIKVPLISIETLVQSMNTNLTHLTEEIARFFIKNTTKEGHHHHHH”, the “soluble on expression in E. coli” value is reported as “not soluble”.

Take “MRDEISSRIRRLPAGMSGGRAPDFALAVYGGAFDPPHPGHESVIRRALLCAERVALVPSHRHAFGKRMGDFELRCRWLARLARRIDPRRVYCEPIEAGLMPDRPAVYSIDLLEALAARSGLASARIALLIGADNEAELPRFERAAELCWRFGRLVAEERLPLHSSMIRQRLREGLAVPEAWCLPEVKDELHCYGGERQAV”: the “soluble on expression in E. coli” value is recorded as “not soluble”.

Take “QIDYMTNSDMGYDYRNKLIIDVFGLDPQIVSTMRTEIAKIPGITGIGLTRGTPLNGGNNNSSEYRGRPLSMQIFSIDSVALSLFDLKMKPNGRKADKPDRTLYLSRSAYNDFDVANLPDGVIHWGKAGEFYYCGDAPEVHFGGFKEPHPSYLFIPYPQSSAWSWSVLVGYSEGADPEQLIQSIQAVYSRITGQPYTEILRSEDIIASHSEEERSLS”: the “soluble on expression in E. coli” value is given as “not soluble”.

“MVEKIERKSLAEQVYDQIKAEITSGAWKIGERIPKEADLMTQFGISRNTLREAIRALAHIGLLETKQGDGTFVRNNSELHAIMQKRVRESSVQEILEMRHALDREAVILACERRTDEDLKMLKKYKQLCYLANKDNDVTAFVKADSALHLTIVKAAHNDLLLDMYVNILEEIQFSITSTTEMNPAVNKHNGHATLVSAIEKRDKEGAAHEVTEYITLFKQIAAKNGDNK”: the “soluble on expression in E. coli” value is listed as “not soluble”.

As to “MPTNCAAAGCATTYNKHINISFHRFPLDPKRRKEWVRLVRRKNFVPGKHTFLCSKHFEASCFDLTGQTRRLKMDAVPTIFDFCTHIKSMKLKSRNLLKKNNSCSPAGPSNLKSNISSQQVLLEHSYAFRNPMEAKKRIIKLEKEIASLRRKMKTCLQKERRATRRWIKATCLVKNLEANSVLPKGTSEHMLPTALSSLPLEDFKILEQDQQDKTLLSLNLKQTKSTFI”, the “soluble on expression in E. coli” value is listed as “not soluble”.

For “MATIKDVARLAGVSVATVSRVINNSPKASEASRLAVHSAMESLSYHPNANARALAQQTTETVGLVVGDVSDPFFGAMVKAVEQVAYHTGNFLLIGNGYHNEQKERQAIEQLIRHRCAALVVHAKMIPDADLASLMKQMPGMVLINRILPGFENRCIALDDRYGAWLATRHLIQQGHTRIGYLCSNHSISDAEDRLQGYYDALAESGIAANDRLVTFGEPDESGGEQAMTELLGRGRNFTAVACYNDSMAAGAMGVLNDNGIDVPGEISLIGFDDVLVSRYVRPRLTTVRYPIVTMATQAAELALALADNRPLPEITNVFSPTLVRRHSVSTPSLEASHHATSD”, the “soluble on expression in E. coli” value is given as “soluble”.

Turning to “MEKHPGKLFYRLSRLAPGDALPLKRGPKAKVYANPLETQALPPFRQDGGPPLFRAMAHLRPLLPEVGASLTLKDLSQVLYPLAEREGRRGFPSAGEAYPLEAYLVVRRVEGVFPGVYHYFPREHQLFQIASKVEEAAWAEALMGVALDRAAVLLVLTLLPERSEALFGLRGYRYALLEAGYAAGLVLLAAVGQGLAAYPAETFHDEGVARLLGLPEGEYPGVVVVLGR”, the “soluble on expression in E. coli” value is on record as “soluble”.

As to “MENQTTDLENMVGASRAGLTRRGFISAGALCGAAMFLGGNILSRTVLANSVSAASGALLGFESIPTATADSISLPKGYTSSVLISWGQPLQANGPAFDPSGKGTAQAQEVQFGDNNDGMCLFPMPGHKDRALMAINNEYTNYRYLFDHGKEPQSAEEVQKALAAEGVSVIEVQQKQGKWQFVQDSRYNRRVHGNTPIKLSGPAAGHDWLKTDADKGGTHALGTFQNCSSGQTPWGTYLTCEENFTDCFGSSNPEQKFDAGMKRYGVVAASKEINWHPHDPRFDVAKNPNEVNRHGWVVEIDPFDPKSTPVKRTALGRFKHENAAFTQTKGGRAVVYMGDDERGEFIYKFISRDKIDHQNPKANRDLLDHGTLYVAQFDAGDSNPDHPKGKGQWIELTHGKNGLDAAASFNNQAEVLIHARLAASVVKATRMDRPEWIVVSPKDGQVYCTLTNNIKRGDEGQPVGGPNPRAKNQYGQILRWSEEGSNASAMAFDWDLFVVAGNPAVHAGTPQAGSSNINAQNMFNSPDGLSFDEAGRLWIQTDGDSSNKGDFAGMGNNQMLCADPASGEIRRFLVGPVGCEITGISFAPDYKTMFIGIQHPGENGGSTFPEHLPNGKPRSSVMVITREDGGVIGALEHHHHHH”, the “soluble on expression in E. coli” value is given as “soluble”.
